Among the data in US20100151496A1 are EC50 of the small-molecule inverse agonist XCT790 for loss of the β-galactosidase complementation signal (ERRα fusion with coactivator-EA fusion) in CHO cells and S/B (signal/background) of β-galactosidase enzyme fragment complementation in CHO cells; loss of signal with the inverse agonist XCT790 values, retold here.

In the assay the target is TRAP-220-EA-Nuc fusion protein. In words: cell-based or functional assay.

Regarding “ERRα (estrogen-related receptor α) fused to the small β-galactosidase fragment (NHR-PK fusion), expressed in CHO cells”, the EC50 of the small-molecule inverse agonist XCT790 for loss of the β-galactosidase complementation signal (ERRα fusion with coactivator-EA fusion) in CHO cells came out at 0.3 µM and the S/B (signal/background) of β-galactosidase enzyme fragment complementation in CHO cells; loss of signal with the inverse agonist XCT790 worked out at 3 fold.
